The source of these data is article PMC3299815 (Biochemistry, 2012).

This data set concerns the molecule itself. Put plainly: SEC. For orientation: In gel filtration, larger molecules generally elute earlier.

As usually defined, the stoichiometry N is a count of units in the complex or per binding partner.

B1: Rv0203-notag (natural protein)
chain: AMAASDPCAASEVARTVGSVAKSMGDYLDSHPETNQVMTAVLQQQVGPGSVASLKAHFEANPKVASDLHALSQPLTDLSTRCSLPISGLQAIGLMQAVQGARR
B1: the “stoichiometry N” value was 2.
